# Source: PMC8285524, “Selective targeting of ligand-dependent and -independent signaling by GPCR conformation-specific anti-US28 intrabodies” (Nature Communications, 2021)
# B1: CX3CL1-Alexa647, P78423 25-341 (ligand)
# chain: QHHGVTKCNITCSKMTSKIPVALLIHYQQNQASCGKRAIILETRQHRLFCADPKEQWVKDAMQHLDRQAAALTRNGGTFEKQIGEVKPRTTPAAGGMDESVVLEPEATGESSSLEPTPSSQEAQRALGTSPELPTGVTGSSGTRLPPTPKAQDGGPVGTELFRVPPVSTAATWQSSAPHQPGPSLWAEAKTSEAPSTQDPSTQASTASSPAPEENAPSEGQRVWGQGQSPRPENSLEREEMGPVPAHTDAFQDWGPGSMAHVSVVPVSSEGTPSREPVASGSWTPKAEEPIHATMDPQRLGVLITPVPDAQAATRRQ
# modifications: here or on the partner: Alexa Fluor 647 label
# B2: CX3CL1 (unlabeled) (ligand, UniProt P78423 25-341, looked up)
# chain: B1 chain
# notes: CX3CL1 (fractalkine), chemokine ligand of US28; also called fractalkine; source: bought: PeproTech (stated for the BRET assays)
# How the values were obtained:
# [1] = target: NLuc-US28-VUN103 (human cytomegalovirus (HCMV)) (UniProt P69332); experiment: FRET or BRET; BRET-based saturation binding of Alexa647-labeled chemokine (0.1 pM-10 nM) to 100 ng membranes with NLuc-US28 constructs; HBSS with 0.05% BSA, 1 h at RT, 10 µM furimazine
# [2] = target: NLuc-US28-Nb7 (human cytomegalovirus (HCMV)) (UniProt P69332); experiment: as above
# [3] = target: NLuc-US28-Irr Nb (human cytomegalovirus (HCMV)) (UniProt P69332); experiment: as above
# [4] = target: NLuc-US28 WT (human cytomegalovirus (HCMV)), P69332; experiment: as above
# US28 wildtype [5] = target: T1, US28 wildtype (human cytomegalovirus (HCMV), UniProt P69332 1-354, Strain: VHL/E is stated for some constructs, but its sequence is neither printed nor among the candidates. The AD169 entry is used as the closest wild type, so a few strain-specific residues may diffe); experiment: radioligand binding; displacement of 100 pM 125I-CX3CL1 or 200 pM 125I-CCL5 from 3 µg US28-expressing membranes (no intrabody) by unlabeled ligand; HEPES binding buffer pH 7.4, 0.1 M NaCl, 0.5% BSA; 2 h at room temperature; GF/C filtration; conditions: one partner purified
# T1 chain: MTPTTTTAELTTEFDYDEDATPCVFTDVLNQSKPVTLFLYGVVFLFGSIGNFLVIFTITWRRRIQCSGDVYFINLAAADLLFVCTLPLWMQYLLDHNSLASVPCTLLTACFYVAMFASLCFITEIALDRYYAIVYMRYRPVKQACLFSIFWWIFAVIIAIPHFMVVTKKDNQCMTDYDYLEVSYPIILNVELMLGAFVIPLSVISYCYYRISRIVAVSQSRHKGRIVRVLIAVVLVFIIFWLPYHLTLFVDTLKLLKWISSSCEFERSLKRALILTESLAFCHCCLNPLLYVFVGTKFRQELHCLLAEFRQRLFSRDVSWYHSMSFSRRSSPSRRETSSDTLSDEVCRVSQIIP
# US28 wildtype [6] = target: T1, US28 wildtype; experiment: radioligand binding; as a1, displacement of 125I-CCL5, membranes of HEK293T cells co-expressing US28 WT and the intrabody VUN103-mVenus; conditions: one partner purified
# US28 wildtype [7] = target: T1, US28 wildtype; experiment: radioligand binding; as a1, displacement of 125I-CCL5, membranes of HEK293T cells co-expressing US28 WT and the intrabody Nb7-mVenus; conditions: one partner purified
molecule,measurement,setting,value
CX3CL1-Alexa647 (from UniProt P78423 25-341) (ligand),pKD,[1],9.6
same,pKD,[2],10.4
same,pKD,[3],9.6
B1,pKD,[4],9.6
B2,pKi,US28 wildtype [5],9.9
same,pKi,US28 wildtype [6],9.7
same,pKi,US28 wildtype [7],10.7
